# Measurements reported in the NTF2 design screens of Basanta et al. (2020).
# Test: protease stability score; higher = more stable; yeast display proteolysis, trypsin and chymotrypsin;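 further: relative to predicted unfolded state with 0 unfolded-like and 1 meaning tenfold more protease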
row,Sequence,protease stability score
1,DEADRFREFAKRLYLEKSNTGDWEELIRLFDPHARYEYGDKEMHGRDTIDFLREMLGIDRIQLRHVNDHSVDLQGDKIHIDGTVVEEWNGQEYRSRVILILRKVDGRWYLETMHVD,0.409
2,TEEEEESKKAVEDLLHTIKTGNEEHMDRLLDPNVRLHVGDKDFVGREAFRHFWHEEWERFKNIKVELEDVKIFNGRVQIVLRIDIGDKHHRLHVYADKINGRWFIKRVEIE,2
3,HEEDEDAERAMRILVEWTKTGDEDKLRRNMDPNVKLWIDGQELHGRDSFKHLLTRFKNVKFEISDIRVLNHEEVVEIQLDTHLRIDGREHRVEIILIVIKVNGKWVMKLVEVRVR,2.12
4,SELEHVEEKLLRDLVNAIKTGDEEFFNRLLDPDDRLHEKQGDKTIDFIGREEWKRFLSQIKNLKVEFRDVDLWNGRIHMRVVIIINGREHDLELEYVIVNGRFKQFHVRIR,2.2
5,DEEEKFSREVMELHIELWETGDEDTLTRLADPHAKFVLEWNGRNHTNHGMDVLIHMLHRLLKELGIKHTELRRKDVIGDKNHIHRRVIVNGVPTDLDLELVIIDGKLREYRIHIRIR,1.56
6,SEDEKFLQIALHLMMHWINTGDEDFLREMADPHVRLHDGDKEHHGWKVIEHLFHYYGVDHITVKRYTIIGDKVKTDGELRVGDKRFRILYETVKIDGRWHVHKIEIR,1.43
7,SEDEEDSKEAFRLVEEILITGNEEEIDDMADPHTRVQIGNKIWHGRELFLDWVREHLRRADVVRDVHLTHESAYDGKVELHMKVVIHYGDKTIDTEMVFVSRKIDGKWITHSITMV,1.18
8,DEDENLMRQFWETWEEALKTGDEHILHNLMDPNYRFIIGDKEHHGREAAEEFIRRVDHVTDIKFHRYRRIGDKIQIDGHLDGEINGKRNRYRSDIFVLKIDGRWFIHSVQIK,2.31
9,DEWEKDARDFTRILLEIFKTGDEKSITELLDPNARVEYGDKEMHGMHLMSRILLKDAKEIRVDHMRLRSIDVYNGVLHVNMEVDGTIDGRRDTYRLHVHTHKFDGRWRVENLIIR,1.06
10,DEEEHDARELARIVIEQFLTGNEDMLREFMDPNTRLHVNGVHRHGRESMVIMLRQLRTKRVHIKSIRIIGEKVDVDGILNGEVNGVEDNHQVHFHLIKVDGQWYIHHVIIR,1.39
11,KEDSEIAEDIIRLLNHASSTGDEETFTHLADPNVRIKIGDKESHGREEWSRTLTELRVEFKDMKIRDVDIQGEYVFVEGELRVEITVNGRTIEIHYESHFIMEKVNGRWHVHSVMML,0.222
12,SELEELWRKMVEFQERSNTTGDEKSFLEMLDPDMRIIIGDFEFHGRENAKDYLRRVDHIHHVEYRRVDLQGDKAHIEMHINGHWDGRTHRTDTHLHLRKFNGRWHVEDVQVD,1.41
13,DEEKEEARRVLEIFIRSTRTGNFKENTEQMDPNVRIDINGVELHGREDAIRLAVEARIHRVEIEHVTTIGDKVEVHGHVDGTFNGQRTRTRLYVVIEKVDGRWLISEYRYH,1.29
14,DEHEEKLIKHMESLLHWEETGDEESMLKNADPNARHDVNGVEFHGMHRFVHHVIKRGWRFRMEVEHVDAFDGRYRVEGTLILNFDGVEHRHHVILRFIVIDGRLHERKVEVR,1.46
15,DEDEKMMELIIKWLQNWMLTGDFDVLHDLVDPHAKYDIGDKEMHGREAQSFLRRRFDHIEHVHLRIDDVESQGDKLIVHGQNTVVGEINGKRENFKRKVHITLEKIDGQWFEREVRVR,1.51
16,DEETKLNHLAIRLWLQSVMTGNEELQTKLIDPHVRNHIDGREYHGREVFRENLRDLWEKYGVKHVELTHEHSQGEKVHLRFKVDVNGRELDHKIIAHKIDGRWLDHSIHFH,0.611
17,NEMHEHAREFLERWKEWMHTGDEETMSKLADPHVRNEYNGVIRVGMEALEKVIRELRVRRTHDHHEHIEFQGDKLHIHVDQESDIEINGVRHRVRIHFDIISVKINGKWTLKSIRLTFH,1.41
18,DEHEEAFREFLRLLLESLRTGDEHTLKRLIDPHARIDIDGQEFVGMEHLEHILKNMIKHIRYEDIEIEHFEFINGQVRFKTRYHGRINGKRDTLHIHIIITKINGKWVLEQLEFR,2.15

row,Sequence,protease stability score
1,DEEEELAHKATEHWLHLVRTGDEEKISSQADPNTKVEIRQGDKRIDSHGMEHFSELLRKLIEDYGVNHIHVNIVRLIDGRVHVNSLVHVGDKEIKIHIWADKVNGRWIHRNMHVHVG,0.547
2,SEHLEIAMRVIREDLIKSSTGDWRRLEDYLDPHVKIQVGNKEIVGWEEVEKNMEHLRIEFRDYRIKDARNIDGKINVHGEIVEIIRVGNKTYQMRTEVDFIATKVDGQWTIHSIRFN,1.15
3,SEEEEDTERALRLELNLLMTGDEEQFWKNMDPHVRTHFNGQERHGREYATHVLRQLGVKHVRLHDVRIIGDKIDIDMRTNVDGRIFRVHIHSEKVNGRWHIHEFFIE,1.07
4,DDYEKDDKHFLNVFLHMLETGDWEKLEKLADPRVRQDVDGVEYHGMEEAVEVWHRLRHKFKGLTLREVTIHDIRTIDGKIDLDVEFHFDFNGREISRRVIIIVDKINGRWELKSMKEK,0.074
5,SEEHEMLKRIMELVIHLFLTGNEDWLRELIDPDTRLHINGVDNHGREEAIRWLHEYNKHLRIHTMEIKRLDVVNGQAHSHVHHEWTINGKQHETEMELIVVVVNGKVKSQELRIK,0.629
6,HEEEEFSRRLAEMLFEFWLTGDEDALERLIDPNARVEMSINGRDFHTHGRDHIIEWVRKIKNLVFRIRRVEIQGEKIILDGEFDVNGVRTRWKLNLVFIDGVVHRLNIIHV,1.72
7,DEEEIHNRLAYRLSHELLETGDWHLMILLADPHVRFEDENHEAHGREEYKEHLNEIHELLGLEKFEVRIHSWRVYDGRVIVHGHILFNGVEFNVETVSLKFNGRWIIEEQRLE,1.36
8,DEEDRHAEEVFRTLIHAWHTGDEDTLKRMLDPDVKILIGDKDHHGRDFFAREMHEISKHLRVHFELHELDVINGRVHVHGTLVITINGREIRITVHIHVLIVDGRVKLQKWIKV,0.583
9,DEERKHSEDLKDMHLKSMLTGDEEFISHLADPNVRIVFNGRDLHGRELLHEILKRINEELGVSNIEVRLHHIEIVGEWVHIHGRLHWNGRTSRIHLLLFKIDGQWNIKSIHIEIE,1.22
10,SEDEEEIKKAVEILLKELRTGDEDSFEKNLDPNARVHDENHRSHGREEVTKWFYEFRKKFKNARHTFEHIIVVGDKVINHMRVEIDGVTINSLWFIKKVDGRWVITSIHIN,2.26
11,DEDEEEAEKFFWTWVESVLTGDEDMLHHLVDPNVRYSQGEKQIHGRESVVKFMSEARVDSIRIKSMHIFNGRINIDSEIDGVINGKRTRIKVHLYILKVDGRWLMQSIEVK,2.03
12,DEEEREARDAVHRFDKDVVTGDEDRLRELMDPNVKLDIGDKEIIGREYMVSFWRELVKHIRIHSITIKRVEVYDGRIHVHQEVTLNIDGQHVTIKSHTIALKVNGKWTWTRFSMT,1.06
13,SEHEHELIEFAELFREIIATGDEDALRRLLDPNTQWDFNGVDLHGRDEVIKELRRWRDRFPNMRVHIRRIRLEVINGRLQLDLHTFVEFDGVEFVQHIHLHIEKVNGRWSVHHIEVRYR,1.1
14,DEDRERSEEIAKLILRSWLTGDERLLEELFDPHARVHINGKEFHGMEKFTEFSRHIRMDRVIIHDVKLIGDKMHIEQEIIITFDGRHLHVRSIIIVLKVNGQWVSRSLEIH,1.16
15,DDVEKLTREWFEKYLHTIQTGDEHSFERLADPNVRLHAENREYHGMEVISERLREEQDKFKGLRITHFHITHIINNEDEMYVDGRIVVEWNGQKEILTVHLIAFKVNGKWILKRYVKK,1.78
16,DESEEESHKVAELVIKIWETGDEHIWENLADPHTRYEIDGKIIHGREIASHIMRIFLERVKNVTFRIKDVKRHVYNGVIEVRNETELNIGDKRIDTHIMVILRKVNGRWYMTEVRFQID,1.53
17,DEIEEQSRRALHEYINKILTGDEKSLTDLMDPDARLIVGDKEVHGRKLVHEWMSQWTEHIRIKHVHLHDIEIIGEKVHLDMRLHGIINGKETEHKVELHMYKINGKWIIHTVKIL,2.04
18,DEEQNHFFESIKELTHSWRTGDEERVTKLADPNVRLEINGRDIVGMERFSKLMIELRVHDLKIHRIRVVNGKVESDIEMHIHQGDKHSVTETHIFARKVDGKWILESIRIG,1.07
